In publication PMC3578176 (Cancer research, 2012):

Molecular target: His(6)-p300 (UniProt Q09472 1-2414)
Assay: pull-down

Sequence of His(6)-p300 (Q09472 whole entry): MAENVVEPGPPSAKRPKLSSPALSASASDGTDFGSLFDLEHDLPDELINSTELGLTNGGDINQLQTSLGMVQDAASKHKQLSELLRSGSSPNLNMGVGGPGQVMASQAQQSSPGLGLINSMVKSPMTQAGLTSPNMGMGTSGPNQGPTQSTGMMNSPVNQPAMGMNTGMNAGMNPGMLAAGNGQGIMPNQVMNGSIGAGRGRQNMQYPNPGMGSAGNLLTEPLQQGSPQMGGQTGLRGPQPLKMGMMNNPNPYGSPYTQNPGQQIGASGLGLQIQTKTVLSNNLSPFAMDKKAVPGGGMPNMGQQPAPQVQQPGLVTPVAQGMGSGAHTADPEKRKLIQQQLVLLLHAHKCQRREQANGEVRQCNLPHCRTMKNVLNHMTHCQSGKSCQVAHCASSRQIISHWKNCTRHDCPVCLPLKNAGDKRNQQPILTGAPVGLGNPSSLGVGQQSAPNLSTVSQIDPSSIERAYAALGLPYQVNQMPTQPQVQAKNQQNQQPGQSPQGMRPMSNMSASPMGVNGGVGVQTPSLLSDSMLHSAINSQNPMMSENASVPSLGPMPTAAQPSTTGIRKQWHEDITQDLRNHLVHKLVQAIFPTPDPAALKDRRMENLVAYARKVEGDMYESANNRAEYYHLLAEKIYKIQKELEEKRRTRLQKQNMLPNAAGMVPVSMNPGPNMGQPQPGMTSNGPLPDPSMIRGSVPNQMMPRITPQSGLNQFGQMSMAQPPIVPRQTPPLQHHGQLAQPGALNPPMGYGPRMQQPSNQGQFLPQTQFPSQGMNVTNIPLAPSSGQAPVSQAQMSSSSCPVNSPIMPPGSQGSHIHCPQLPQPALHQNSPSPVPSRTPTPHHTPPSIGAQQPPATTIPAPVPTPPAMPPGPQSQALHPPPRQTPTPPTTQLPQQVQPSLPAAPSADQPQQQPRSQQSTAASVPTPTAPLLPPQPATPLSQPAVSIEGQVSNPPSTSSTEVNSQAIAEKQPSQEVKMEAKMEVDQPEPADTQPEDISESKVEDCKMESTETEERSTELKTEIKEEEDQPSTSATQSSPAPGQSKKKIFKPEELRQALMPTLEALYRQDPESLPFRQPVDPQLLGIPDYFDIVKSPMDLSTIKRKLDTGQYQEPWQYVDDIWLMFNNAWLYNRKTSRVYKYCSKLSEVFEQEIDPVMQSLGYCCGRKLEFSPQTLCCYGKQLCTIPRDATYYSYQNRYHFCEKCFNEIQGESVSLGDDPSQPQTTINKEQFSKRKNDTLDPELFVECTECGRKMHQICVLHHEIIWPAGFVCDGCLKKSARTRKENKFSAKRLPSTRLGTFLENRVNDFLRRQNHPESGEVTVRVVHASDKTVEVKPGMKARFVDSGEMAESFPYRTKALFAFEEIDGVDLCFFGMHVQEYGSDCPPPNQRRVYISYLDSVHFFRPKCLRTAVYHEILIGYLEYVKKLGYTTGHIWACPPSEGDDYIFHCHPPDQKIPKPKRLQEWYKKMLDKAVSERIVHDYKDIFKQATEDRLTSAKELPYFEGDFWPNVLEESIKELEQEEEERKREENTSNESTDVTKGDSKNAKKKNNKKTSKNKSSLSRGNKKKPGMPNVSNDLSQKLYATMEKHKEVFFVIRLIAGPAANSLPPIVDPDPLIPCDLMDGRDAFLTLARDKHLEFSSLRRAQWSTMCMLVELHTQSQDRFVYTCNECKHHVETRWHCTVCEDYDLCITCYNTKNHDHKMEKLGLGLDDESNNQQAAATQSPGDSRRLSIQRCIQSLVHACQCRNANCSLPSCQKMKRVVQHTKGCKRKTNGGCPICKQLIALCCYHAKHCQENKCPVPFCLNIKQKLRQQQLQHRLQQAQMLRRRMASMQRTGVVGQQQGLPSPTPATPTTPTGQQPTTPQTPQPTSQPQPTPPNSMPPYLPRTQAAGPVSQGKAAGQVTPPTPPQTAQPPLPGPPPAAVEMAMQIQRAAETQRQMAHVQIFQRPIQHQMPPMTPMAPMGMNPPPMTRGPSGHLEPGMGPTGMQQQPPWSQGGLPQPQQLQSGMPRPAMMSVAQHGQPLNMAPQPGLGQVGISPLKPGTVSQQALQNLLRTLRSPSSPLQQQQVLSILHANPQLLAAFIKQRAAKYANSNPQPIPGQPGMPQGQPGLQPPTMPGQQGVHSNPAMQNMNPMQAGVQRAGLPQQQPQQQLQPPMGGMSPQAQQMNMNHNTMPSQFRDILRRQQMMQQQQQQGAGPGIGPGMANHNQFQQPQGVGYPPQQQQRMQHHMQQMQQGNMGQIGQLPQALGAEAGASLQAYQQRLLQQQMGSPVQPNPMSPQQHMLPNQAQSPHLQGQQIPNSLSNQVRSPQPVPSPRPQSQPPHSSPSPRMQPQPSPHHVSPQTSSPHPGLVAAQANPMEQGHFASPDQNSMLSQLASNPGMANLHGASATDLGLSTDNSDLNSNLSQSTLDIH

B1: GST-fused BRMS1 WT (natural protein, UniProt Q9HCU9 1-246, looked up)
chain: MPVQPPSKDTEEMEAEGDSAAEMNGEEEESEEERSGSQTESEEESSEMDDEDYERRRSECVSEMLDLEKQFSELKEKLFRERLSQLRLRLEEVGAERAPEYTEPLGGLQRSLKIRIQVAGIYKGFCLDVIRNKYECELQGAKQHLESEKLLLYDTLQGELQERIQRLEEDRQSLDLSSEWWDDKLHARGSSRSWDSLPPSKRKKAPLVSGPYIVYMLQEIDILEDWTAIKKARAAVSPQKRKSDGP
Question: Does B1 bind?
Answer: binds
